Data: article PMC6327041 (Nature Communications, 2019)

Molecular target: T1, KDM5A1-797 (Homo sapiens, UniProt P29375)
T1 construct: KDM5A1-797 was cloned into a pFASTBAC HTA vector; His (N, cleaved yes); made in house; host or cells: Sf21 insect cells (baculovirus)
T1 sequence (P29375 1-797): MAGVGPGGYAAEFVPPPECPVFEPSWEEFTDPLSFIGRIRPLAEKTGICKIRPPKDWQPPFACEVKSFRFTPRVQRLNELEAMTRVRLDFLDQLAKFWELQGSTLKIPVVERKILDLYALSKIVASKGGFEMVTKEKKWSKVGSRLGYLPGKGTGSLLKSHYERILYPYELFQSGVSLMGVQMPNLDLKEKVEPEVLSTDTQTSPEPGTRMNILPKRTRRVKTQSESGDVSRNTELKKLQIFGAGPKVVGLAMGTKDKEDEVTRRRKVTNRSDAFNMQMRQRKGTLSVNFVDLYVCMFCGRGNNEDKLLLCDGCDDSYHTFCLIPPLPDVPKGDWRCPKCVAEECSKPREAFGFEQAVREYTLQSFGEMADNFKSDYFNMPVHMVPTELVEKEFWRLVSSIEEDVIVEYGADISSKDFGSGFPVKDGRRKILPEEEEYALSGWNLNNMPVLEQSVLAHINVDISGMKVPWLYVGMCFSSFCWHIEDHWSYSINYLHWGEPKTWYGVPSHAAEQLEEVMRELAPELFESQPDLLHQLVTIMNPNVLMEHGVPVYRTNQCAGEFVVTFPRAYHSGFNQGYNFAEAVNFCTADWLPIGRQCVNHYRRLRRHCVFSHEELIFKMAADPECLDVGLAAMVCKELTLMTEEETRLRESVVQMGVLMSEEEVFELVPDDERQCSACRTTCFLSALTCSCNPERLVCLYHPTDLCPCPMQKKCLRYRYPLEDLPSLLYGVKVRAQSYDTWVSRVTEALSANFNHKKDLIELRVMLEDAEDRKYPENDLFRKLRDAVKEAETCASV
Assay: Lysine crosslinking MS
Conditions: H3 effector peptide 40 µM, BS^3-H12/D12, 1 h, 4 °C
Method: Hundred micrograms of KDM5A1-797 was crosslinked with 1 mM BS^3-H12 for 1 h at 4 °C. […] After quenching with 50 mM Tris-base, the light and heavy crosslinked reaction mixtures were combined and precipitated with ice cold acetone. Crosslinked proteins were pelleted by spinning at 21,000 × g, the supernatant was removed, and the pellet was washed once with cold acetone. The precipitate was brought up in 8 M Urea, 10 mM TCEP, heated at 56 °C for 20 min, and then alkylated with 15 mM iodoacetamide (45 min at room temperature). The sample was diluted to 2 M Urea and digested […] with 0.8 µg trypsin for 4 h at 37 °C. A second aliquot of trypsin was then added and digestion was allowed to proceed overnight. […]
LC-MS analysis was performed with a Q-Exactive Plus mass spectrometer (Thermo Scientific) coupled with a nanoelectrospray ion source (Easy-Spray, Thermo) and NanoAcquity UPLC system (Waters). […] Precursor MS scans were measured in the Orbitrap scanning from 350 to 1500 m/z (mass resolution: 70,000). The ten most intense triply charged or higher precursors were isolated in the quadrupole (isolation window: 4 m/z), dissociated by HCD (normalized collision energy: 23), and the product ion spectra were measured in the Orbitrap (mass resolution: 17,500). […]
For quantitative analysis, precursor ion filtering in Skyline 4.1 was used to extract light:heavy crosslinked precursor ion signals. […]

Q: For “H3: unmodified N-terminal H3 tail 10mer peptide (H3 Ala1-Ser10), PHD1 effector ligand”, which “changes in lysine crosslinks” value is on record?
A: minor changes in crosslink occupancy and distribution
